Measurements as given in the supplement of paper PMC11246515.
± gives the standard deviation of the averaged measurements.

Experiment: total protein half-life in vivo (active degradation + dilution); higher = more stable protein
[1] = E. coli NCM3722 delta-clpP delta-lon delta-hslV, growth: N-lim chemostat, doubling time 6 h
[2] = E. coli NCM3722 delta-clpP, growth: N-lim chemostat, doubling time 6 h
[3] = E. coli NCM3722 delta-hslV, growth: N-lim chemostat, doubling time 6 h
[4] = E. coli NCM3722 delta-lon, growth: N-lim chemostat, doubling time 6 h
[5] = E. coli NCM3722 delta-smpB, growth: N-lim chemostat, doubling time 6 h
[6] = wild type E. coli NCM3722, growth: C-lim chemostat, doubling time 3 h
[7] = wild type E. coli NCM3722, growth: C-lim chemostat, doubling time 6 h
[8] = wild type E. coli NCM3722, growth: C-lim chemostat, doubling time 12 h
[9] = wild type E. coli NCM3722, growth: N-lim chemostat, doubling time 6 h
[10] = wild type E. coli NCM3722, growth: N-lim chemostat, doubling time 12 h
[11] = wild type E. coli NCM3722, growth: P-lim chemostat, doubling time 6 h
[12] = wild type E. coli NCM3722, growth: P-lim chemostat, doubling time 12 h

| Sequence | total protein half-life in vivo [1] | total protein half-life in vivo [2] | total protein half-life in vivo [3] | total protein half-life in vivo [4] | total protein half-life in vivo [5] | total protein half-life in vivo [6] | total protein half-life in vivo [7] | total protein half-life in vivo [8] | total protein half-life in vivo [9] | total protein half-life in vivo [10] | total protein half-life in vivo [11] | total protein half-life in vivo [12] |
| --- | --- | --- | --- | --- | --- | --- | --- | --- | --- | --- | --- | --- |
| MQRGIVWVVDDDSSIRWVLERALAGAGLTCTTFENGAEVLEALASKTPDVLLSDIRMPGMDGLALLKQIKQRHPMLPVIIMTAHSDLDAAVSAYQQGAFDYLPKPFDIDEAVALVERAISHYQEQQQPRNVQLNGPTTDIIGEAPAMQDVFRIIGRLSRSSISVLINGESGTGKELVAHALHRHSPRAKAPFIALNMAAIPKDLIESELFGHEKGAFTGANTIRQGRFEQADGGTLFLDEIGDMPLDVQTRLLRVLADGQFYRVGGYAPVKVDVRIIAATHQNLEQRVQEGKFREDLFHRLNVIRVHLPPLRERREDIPRLARHFLQVAARELGVEAKLLHPETEAALTRLAWPGNVRQLENTCRWLTVMAAGQEVLIQDLPGELFESTVAESTSQMQPDSWATLLAQWADRALRSGHQNLLSEAQPELERTLLTTALRHTQGHKQEAARLLGWGRNTLTRKLKELGME [P0AFB8] | 5.64 ± 0.8 h | 5.18 ± 0.39 h | 4.86 ± 0.35 h | 5.263 ± 0.02 h | 4.32 ± 0.052 h | 2.678 ± 0.0012 h | 4.85 ± 0.1 h | 8.034 ± 0.033 h | 4.72 ± 0.12 h | 7.57 ± 0.25 h | 4.22 ± 0.085 h | 7.58 ± 0.097 h |
| MQRLFLLVAVMLLSGCLTAPPKEAARPTLMPRAQSYKDLTHLPAPTGKIFVSVYNIQDETGQFKPYPASNFSTAVPQSATAMLVTALKDSRWFIPLERQGLQNLLNERKIIRAAQENGTVAINNRIPLQSLTAANIMVEGSIIGYESNVKSGGVGARYFGIGADTQYQLDQIAVNLRVVNVSTGEILSSVNTSKTILSYEVQAGVFRFIDYQRLLEGEVGYTSNEPVMLCLMSAIETGVIFLINDGIDRGLWDLQNKAERQNDILVKYRHMSVPPES [P0AEA2] |  |  |  |  |  |  |  |  |  | 4.39 h |  |  |
| MQSLTTALENLLRHLSQEIPATPGIRVIDIPFPLKDAFDALSWLASQQTYPQFYWQQRNGDEEAVVLGAITRFTSLDQAQRFLRQHPEHADLRIWGLNAFDPSQGNLLLPRLEWRRCGGKATLRLTLFSESSLQHDAIQAKEFIATLVSIKPLPGLHLTTTREQHWPDKTGWTQLIELATKTIAEGELDKVVLARATDLHFASPVNAAAMMAASRRLNLNCYHFYMAFDGENAFLGSSPERLWRRRDKALRTEALAGTVANNPDDKQAQQLGEWLMADDKNQRENMLVVEDICQRLQADTQTLDVLPPQVLRLRKVQHLRRCIWTSLNKADDVICLHQLQPTAAVAGLPRDLARQFIARHEPFTREWYAGSAGYLSLQQSEFCVSLRSAKISGNVVRLYAGAGIVRGSDPEQEWQEIDNKAAGLRTLLQME | 4.68 ± 0.47 h | > 8 h | 3.92 ± 0.49 h | 4.47 ± 0.15 h | 3.94 ± 0.32 h | 2.96 ± 0.1 h | 4.82 ± 0.16 h | 10.2 ± 0.62 h | 3.92 ± 0.21 h | 6.68 ± 0.27 h | 5.06 ± 0.77 h | 11.1 ± 0.5 h |
| MQSVDVAIVGGGMVGLAVACGLQGSGLRVAVLEQRVQEPLAANAPPQLRVSAINAASEKLLTRLGVWQDILSRRASCYHGMEVWDKDSFGHISFDDQSMGYSHLGHIVENSVIHYALWNKAHQSSDITLLAPAELQQVAWGENETFLTLKDGSMLTARLVIGADGANSWLRNKADIPLTFWDYQHHALVATIRTEEPHDAVARQVFHGEGILAFLPLSDPHLCSIVWSLSPEEAQRMQQASEDEFNRALNIAFDNRLGLCKVESARQVFPLTGRYARQFASHRLALVGDAAHTIHPLAGQGVNLGFMDAAELIAELKRLHRQGKDIGQYIYLRRYERSRKHSAALMLAGMQGFRDLFSGTNPAKKLLRDIGLKLADTLPGVKPQLIRQAMGLNDLPEWLR | 5.67 ± 0.7 h | 5.28 ± 0.23 h | 4.33 ± 0.36 h | 4.06 ± 0.068 h | 4.06 ± 0.21 h | 2.864 ± 0.025 h | 5.52 ± 0.85 h | 7.26 ± 0.26 h | 4.1 ± 0.084 h | 7.19 ± 0.06 h | 3.16 ± 0.12 h | 5.3 ± 0.84 h |
| MQTEQQRAVTRLCIQCGLFLLQHGAESALVDELSSRLGRALGMDSVESSISSNAIVLTTIKDGQCLTSTRKNHDRGINMHVVTEVQHIVILAEHHLLDYKGVEKRFSQIQPLRYPRWLVALMVGLSCACFCKLNNGGWDGAVITFFASTTAMYIRQLLAQRHLHPQINFCLTAFAATTISGLLLQLPTFSNTPTIAMAASVLLLVPGFPLINAVADMFKGHINTGLARWAIASLLTLATCVGVVMALTIWGLRGWV [P0ADD5] |  |  |  |  |  |  |  | 15.1 h |  |  | 6.86 h |  |
| MQTIIRVEKLAKTFNQHQALHAVDLNIHHGEMVALLGPSGSGKSTLLRHLSGLITGDKSVGSHIELLGRTVQREGRLARDIRKSRAHTGYIFQQFNLVNRLSVLENVLIGALGSTPFWRTCFSWFTGEQKQRALQALTRVGMVHFAHQRVSTLSGGQQQRVAIARALMQQAKVILADEPIASLDPESARIVMDTLRDINQNDGITVVVTLHQVDYALRYCERIVALRQGHVFYDGSSQQFDNERFDHLYRSINRVEENAKAA |  |  |  |  |  |  |  |  |  |  | 0.231 ± 0.32 h | 0.931 ± 0.95 h |
| MQTKKNEIWVGIFLLAALLAALFVCLKAANVTSIRTEPTYTLYATFDNIGGLKARSPVSIGGVVVGRVADITLDPKTYLPRVTLEIEQRYNHIPDTSSLSIRTSGLLGEQYLALNVGFEDPELGTAILKDGDTIQDTKSAMVLEDLIGQFLYGSKGDDNKNSGDAPAAAPGNNETTEPVGTTK | 6.04 ± 0.2 h | 6.2952 ± 0.0017 h | 5.73 ± 1.1 h | 6.27 ± 0.51 h | 6.07 ± 0.14 h |  | 5.612 ± 0.038 h | 12.5 ± 1.4 h | 6.08 ± 0.09 h | 13.6 ± 1.8 h | 5.72 ± 0.45 h | 13.7 ± 0.79 h |
| MQTPHILIVEDELVTRNTLKSIFEAEGYDVFEATDGAEMHQILSEYDINLVIMDINLPGKNGLLLARELREQANVALMFLTGRDNEVDKILGLEIGADDYITKPFNPRELTIRARNLLSRTMNLGTVSEERRSVESYKFNGWELDINSRSLIGPDGEQYKLPRSEFRAMLHFCENPGKIQSRAELLKKMTGRELKPHDRTVDVTIRRIRKHFESTPDTPEIIATIHGEGYRFCGDLED [P0A9Q1] | 5.53 ± 0.35 h | 5.61 ± 1 h | 4.95 ± 0.086 h | 5.76 ± 0.36 h | 4.87 ± 0.05 h | 2.73 ± 0.069 h | 5.78 ± 0.19 h | 9.44 ± 1.7 h | 4.76 ± 0.39 h | 8.14 ± 0.24 h | 5.18 ± 0.058 h | 10.3 ± 0.2 h |
| MQTQKPTLELLTCEGAYRDNPTALFHQLCGDRPATLLLESADIDSKDDLKSLLLVDSALRITALGDTVTIQALSGNGEALLALLDNALPAGVESEQSPNCRVLRFPPVSPLLDEDARLCSLSVFDAFRLLQNLLNVPKEEREAMFFGGLFSYDLVAGFEDLPQLSAENNCPDFCFYLAETLMVIDHQKKSTRIQASLFAPNEEEKQRLTARLNELRQQLTEAAPPLPVVSVPHMRCECNQSDEEFGGVVRLLQKAIRAGEIFQVVPSRRFSLPCPSPLAAYYVLKKSNPSPYMFFMQDNDFTLFGASPESSLKYDATSRQIEIYPIAGTRPRGRRADGSLDRDLDSRIELEMRTDHKELSEHLMLVDLARNDLARICTPGSRYVADLTKVDRYSYVMHLVSRVVGELRHDLDALHAYRACMNMGTLSGAPKVRAMQLIAEAEGRRRGSYGGAVGYFTAHGDLDTCIVIRSALVENGIATVQAGAGVVLDSVPQSEADETRNKARAVLRAIATAHHAQETF | 4.74 ± 0.93 h | 3.4 ± 0.18 h | 3.1 ± 0.083 h | 3.6 ± 0.24 h | 3.3 ± 0.17 h | 2.93 ± 0.52 h | 5.7 ± 0.12 h | 9.57 ± 0.22 h | 3.25 ± 0.13 h | 5.08 ± 0.34 h | 6.71 ± 0.33 h | 10.7 ± 1.7 h |
